Assays:
[1] = system: COS7 cells; experiment: Subcellular distribution of GFP-HIF-1α chimeras in living cells (fluorescence microscopy, cell counting); format: cell-based, simian
[2] = system: GAL4 responsive reporter plasmid; experiment: Cotransfection of GAL4-HIF-1α fusion proteins with GAL4 responsive luciferase reporter; format: cell-based, simian
From the text: To analyze functional activities of HIF-1α independently of the endogenous DNA binding and dimerization domains and the Arnt partner, we next fused HIF-1α to the heterologous DNA binding domain of GAL4. Functional activity of the fusion protein was monitored in COS7 cells by a cotransfection assay using a reporter gene construct carrying five GAL4 DNA binding elements in front of thymidine kinase promoter and the luciferase gene. Six hours after transfection media was changed, and cells were either left uninduced or exposed to 1% oxygen for 30 h prior to harvest. In the presence of either empty expression vector or a vector expressing the minimal GAL4 DNA binding domain, reporter gene activity was unaltered by reduced oxygen levels. […] The GAL4 DNA binding domain is known to harbor an NLS motif capable of taking fusion proteins to the nucleus (Ma and Ptashne (1987) Cell 51, 113-119). We therefore used antibodies directed against the DNA binding domain of GAL4 to examine in both normoxic and hypoxic cells the intracellular localization of the GAL4-HIF-1α fusion protein by immunofluorescence.
Transcriptional activity of GFP and GAL4 fusion constructs was analyzed in a cotransfection assay where effector plasmids (0.2 μg/30-mm dish) together with a reporter gene (1.5 μg/30-mm dish) were introduced into COS7 or HeLa cells. […]

[3] = biological target: GST/Ref-1 (Homo sapiens, UniProt P27695); experiment: Pull-down of [35S]methionine-labeled GAL4/HIF proteins with GST/Ref-1; format: binding; settings: presence or absence of diamide
Chain of GST/Ref-1 (P27695 whole entry, species assumed, the tested form may be a part): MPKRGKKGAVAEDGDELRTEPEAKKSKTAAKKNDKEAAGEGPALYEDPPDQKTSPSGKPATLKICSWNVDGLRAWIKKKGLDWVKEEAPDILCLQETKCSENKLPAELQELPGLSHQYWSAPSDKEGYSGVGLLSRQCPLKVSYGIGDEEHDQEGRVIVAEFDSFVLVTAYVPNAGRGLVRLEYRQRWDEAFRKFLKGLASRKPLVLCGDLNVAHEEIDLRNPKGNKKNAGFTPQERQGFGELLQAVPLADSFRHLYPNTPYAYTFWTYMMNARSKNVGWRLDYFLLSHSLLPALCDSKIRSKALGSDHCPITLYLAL
Protocol: The precise mechanism by which Ref-1 activates HIF-1α is not known. […] To further investigate whether Ref-1 could interact with HIF-1α, we tried to trap the interaction by using a crosslinking reagent such as diamide, which oxidizes cysteine sulfhydryls to disulfides. A series of experiments was performed with GST-tagged purified Ref-1. [^35S]methionine-labeled in vitro translated GAL4/HIF 1-826 was incubated with GST/Ref-1 in the presence or absence of diamide.
Next, we tried a series of pull-down experiments with [^35S]methionine-labeled in vitro translated GAL4/HIF […] and GAL4/HIF 531-584. […] An interaction between GAL4/HIF […] and GST/Ref-1 was also detected, and this interaction was enhanced in the presence of diamide. In excellent agreement with this observation the C-TAD contains two cysteine residues. […] Immunoblot analysis verified that the input concentrations of GST/Ref-1 or GST alone were similar.

[4] = system: hypoxia responsive reporter gene (HRE-luc); experiment: Cotransfection of GFP-HIF-1α fusion constructs with hypoxia responsive reporter gene (HRE-luc); format: cell-based, simian; settings: 1% O2 vs normoxia, no CBP
From the text: We next examined the ability of GFP-HIF-1α fusion proteins in functional cotransfection assays where GFP-HIF-1α expression vectors were introduced into COS7 cells together with a hypoxia-responsive gene reporter construct carrying three tandem copies of the erythropoietin hypoxia responsive element (HRE) in front of the Herpes simplex thymidine kinase promoter and the luciferase gene. […] This reporter gene activity was further stimulated about 4-fold by hypoxia (FIG. 6A). In control experiments, transient expression of wild-type HIF-1α also yielded a similar pattern of reporter gene activation, albeit with a slightly lower potency generating about a 2-fold activation response upon exposure to hypoxia. […] In fact, stabilization of the fusion protein (FIG. 2C) by the GFP moiety may rather have enhanced the potency of the activation response produced by HIF-1α.
Transcriptional activity of GFP and GAL4 fusion constructs was analyzed in a cotransfection assay where effector plasmids (0.2 μg/30-mm dish) together with a reporter gene (1.5 μg/30-mm dish) were introduced into COS7 or HeLa cells. The reporter plasmid encoded firefly luciferase gene under the control of thymidine kinase minimal promoter and either five or three copies of GAL4 or HIF-responsive elements, respectively.

[5] = biological target: T1, HIF-1α/Arnt complex (Homo sapiens, UniProt Q16665); experiment: pT81/HRE-Luc reporter assay with HIF-1α, Arnt and coactivators (CBP, TIF2, SRC-1); format: cell-based
T1 construct: expression plasmid for full-length HIF-1α (pCMV-HIF-1α); expressed in transfected cells
T1 sequence (Q16665 whole entry): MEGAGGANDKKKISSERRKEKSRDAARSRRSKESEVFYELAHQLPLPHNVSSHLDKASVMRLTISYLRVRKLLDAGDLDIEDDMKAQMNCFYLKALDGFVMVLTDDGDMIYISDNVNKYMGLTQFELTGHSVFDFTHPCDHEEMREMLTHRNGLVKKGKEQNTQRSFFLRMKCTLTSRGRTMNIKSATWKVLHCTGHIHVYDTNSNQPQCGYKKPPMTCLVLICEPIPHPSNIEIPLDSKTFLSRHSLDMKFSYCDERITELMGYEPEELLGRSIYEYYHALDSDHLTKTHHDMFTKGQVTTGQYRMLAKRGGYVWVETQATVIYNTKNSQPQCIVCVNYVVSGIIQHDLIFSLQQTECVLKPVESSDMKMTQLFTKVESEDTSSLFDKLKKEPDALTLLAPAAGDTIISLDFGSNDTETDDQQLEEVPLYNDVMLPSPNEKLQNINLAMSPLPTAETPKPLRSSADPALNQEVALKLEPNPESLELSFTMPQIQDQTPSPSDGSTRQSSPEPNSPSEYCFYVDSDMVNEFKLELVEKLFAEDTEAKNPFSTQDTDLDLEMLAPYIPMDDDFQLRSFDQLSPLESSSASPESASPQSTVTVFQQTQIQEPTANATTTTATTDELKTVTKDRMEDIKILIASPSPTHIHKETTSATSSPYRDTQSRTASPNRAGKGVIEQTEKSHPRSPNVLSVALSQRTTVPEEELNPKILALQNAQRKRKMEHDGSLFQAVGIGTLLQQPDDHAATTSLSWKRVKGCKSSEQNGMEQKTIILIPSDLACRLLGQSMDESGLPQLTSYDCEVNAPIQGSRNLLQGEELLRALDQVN
T1 sequence (P27540 whole entry partner): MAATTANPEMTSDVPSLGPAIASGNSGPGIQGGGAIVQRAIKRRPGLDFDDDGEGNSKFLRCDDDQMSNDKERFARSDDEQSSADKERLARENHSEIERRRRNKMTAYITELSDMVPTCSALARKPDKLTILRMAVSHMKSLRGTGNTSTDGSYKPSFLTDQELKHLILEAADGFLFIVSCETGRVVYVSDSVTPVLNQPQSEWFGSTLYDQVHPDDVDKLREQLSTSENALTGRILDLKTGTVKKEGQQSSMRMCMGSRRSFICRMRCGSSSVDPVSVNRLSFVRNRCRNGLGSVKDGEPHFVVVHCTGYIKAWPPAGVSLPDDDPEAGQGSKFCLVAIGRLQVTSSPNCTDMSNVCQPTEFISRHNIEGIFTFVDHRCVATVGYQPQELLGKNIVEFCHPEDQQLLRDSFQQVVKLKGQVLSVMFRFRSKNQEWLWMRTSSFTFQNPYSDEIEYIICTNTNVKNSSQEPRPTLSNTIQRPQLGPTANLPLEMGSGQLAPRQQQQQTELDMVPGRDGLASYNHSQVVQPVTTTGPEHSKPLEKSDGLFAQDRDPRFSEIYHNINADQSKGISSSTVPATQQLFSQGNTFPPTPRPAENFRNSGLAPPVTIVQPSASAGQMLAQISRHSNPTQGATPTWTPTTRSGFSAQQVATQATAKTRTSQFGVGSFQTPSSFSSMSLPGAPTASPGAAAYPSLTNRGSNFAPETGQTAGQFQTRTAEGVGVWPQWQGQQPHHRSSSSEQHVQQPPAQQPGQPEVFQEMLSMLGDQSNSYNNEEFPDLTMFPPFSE
Protocol: FIG. 8 The transcriptional coactivator TIF2 enhances the HIF-1α-mediated transactivation function and interacts with HIF-1α in vivo. COS7 cells were transiently cotransfected as described in Materials and Methods with 0.5 μg pT81/HRE-Luc reporter construct, hHIF1-α expression vector (pCMV4/HIF-1α, 0.2 μg), Arnt expression vector (pCMV4/Arnt, 0.2 μg) and 0.75-1.5 μg of either TIF2 (pSG5/TIF2) or CBP (Rc/RSV-CBP-HA), as indicated. The total amount of DNA was kept constant by the addition of parental pCMV4 when appropriate. Following transfection cells were incubated either under normoxic (21% O2) or hypoxic conditions (1% O2). Luciferase activities were normalized for transfection efficiency by cotransfection of alkaline phosphatase expressing pRSV-AF. Data are presented as luciferase activity relative to cells transfected with pCMV4 and reporter gene only and incubated at normoxia. Values represent the mean ±S.E. of two independent experiments.
(§1) FIG. 9 The transcriptional coactivator SRC-1 stimulates HIF-1α activity in a hypoxia-dependent manner and interacts in vitro with HIF-1α. (A) COS7 and (B) human embryonic kidney 293 cells were cotransfected with pT81/HRE-Luc (0.5 μg), 0.2 μg of pCMV4/HIF-1α (hHIF1-α), 0.2 μg of pCMV4/Arnt (Arnt), and 0.75-1.5 μg of SRC-1 (pSG5/SRC-1), as indicated. Six h after transfection cells were exposed to either 21 or 1% O2 for 36 h before harvest. Luciferase values are presented as relative luciferase activity as described in the legend to FIG. 1. The results of three independent experiments performed in duplicate ±S.E. are shown. (C) SRC-1 PAS domain is not required for functional interaction with HIF-1α. (Top) Schematic representation of full-length SRC-1 and SRC-1ΔPAS. (Bottom) pGAL4/HIF 71-826 was cotransfected into COS7 cells together with a reporter plasmid expressing the luciferase gene driven by the thymidine kinase minimal promoter under the control of five copies of GAL4-binding sites, and 1.5 μg of either full-length SRC-1 or a deletion mutant of SRC-1, SRC-1ΔPAS, lacking the PAS domain. Cells were exposed to 21 or 1% O2 for 36 h before harvest and reporter gene assays. Luciferase values are presented as relative luciferase activity as described in the legend to FIG. 1. The results of two independent experiments performed in duplicate +S.E. are shown. (D) In vitro interaction between SRC-1 and HIF-1α. COS7 cells were transfected with 10 μg of the expression plasmid pGST-HIF-1α (GST-HIF) or empty GST expression vector (GST). Cells were exposed to either 100 μM CoCl2 or vehicle (H2O) for 24 h. […] The eluted material was analyzed on 5% SDS-PAGE and visualized by fluorography. ⅕×Input represents one-fifth of the amount of [^35S]methionine-labeled SRC-1 used in the binding reactions. […]

[6] = biological target: T2, GST-HIF-1α (Homo sapiens, UniProt Q16665); experiment: GST precipitation assay of in vitro translated [35S]labeled SRC-1 with GST-HIF-1α; format: binding
T2 construct: expressed in transfected cells; host or cells: COS7 cells, treated with 100 μM CoCl2 or vehicle; whole cell extract used
T2 sequence (Q16665 whole entry): as the sequence (Q16665 whole entry) above
Protocol: as §1, with “assays.” for “assays. Luciferase values are presented as relative luciferase activity as described in the legend to FIG. 1. The results of two independent experiments performed in duplicate +S.E. are shown. (D) In vitro interaction between SRC-1 and HIF-1α. COS7 cells were transfected with 10 μg of the expression plasmid pGST-HIF-1α (GST-HIF) or empty GST expression vector (GST). Cells were exposed to either 100 μM CoCl2 or vehicle (H2O) for 24 h.”

Molecule: [Cl-].[Cl-].[Co+2] [CoCl2]
- effect on nuclear import of GFP-HIF-1α [1]: induced nuclear import of GFP-HIF-1α

Molecule: GAL4-HIF-1α: full length HIF-1α fused to the GAL4 DNA binding domain
- hypoxia-dependent activation of GAL4 reporter gene activity ([2]; 1% O2 vs normoxia, no exogenous coactivator): about 2 fold
- stimulation of GAL4 reporter activity by coexpressed CBP ([2]; hypoxic conditions, vs hypoxia without exogenous coactivator): 19 fold
- binding to GST/Ref-1 (in words) [3]: weakly bind GST/Ref-1

Molecule: HIF-1α: transiently expressed wild-type human hypoxia-inducible factor-1α
- stimulation of HRE reporter gene activity by hypoxia compared to normoxia [4]: about 2 fold
- increase of reporter gene activity by hypoxia ([5]; coexpression of HIF-1α and Arnt, 1% O2): ~1.5 fold
- stimulation of pT81/HRE-luc reporter gene activity ([5]; coexpression of HIF-1α and Arnt, normoxic conditions): around 10 fold

Molecule: SRC-1: p160 family transcriptional coactivator
- enhancement of transcriptional activity of HIF-1α ([5]; normoxic conditions, COS7): around 3 fold
- binding to GST-HIF-1α (in words) ([6]; extract of cells treated with 100 μM CoCl2): specifically retained
- binding to GST-HIF-1α (in words) ([6]; extract of non-treated cells): no significant binding

Molecule: TIF2: p160 family transcriptional coactivator
- activation of the reporter gene over the levels observed at normoxia ([5]; coexpression with HIF-1α, COS7): around 12 fold

From US6436654B1, “Methods for identifying compounds that modulate HIF-1α” (Pharmacia & Upjohn AB, priority 1998, dated 2002)
